In US6399758B1, “Nucleic acids for reducing carbohydrate epitopes” (The Austin Research Institute, priority 1996, dated 2002):
Read-outs that look alike come from different tables or passages of the source.

Assays:
[1] = Enzyme kinetics, apparent Km, Type III substrate; type: biochemical; details: Type III Galβ(1,3)GalNAc; lysates of transfected COS cells
Procedure: (§1) Cells were washed twice with phosphate buffered saline and lysed in either 1% Triton X100/100 mM Tris pH7.0 or 1% Triton X100/100 mM sodium cacodylate pH 6.5/25 mM MnCl2 at 4° C. for 30 min, lysates centrifuged and the supernatant collected and stored at −70° C. Protein concentration was determined by the Bradford test, using bovine serum albumin as a standard; 5-20 μg of cell extract was used per transferase assay. The assay for α-1,2 fucosyltransferase involved mixing cell extracts and acceptor (75 mM pheny-β-Dgalactoside (Sigma)) in 50 μl 50 mM MOPS (3-[N-Morpholino]propanesulphonic acid) pH 6.5; 20 mM MnCl2; 5 mM ATP; 3 μM GDP[^14C]-Fuc (specific activity 287 mCi/mmol, Amersham International plc, Amersham, UK) and incubation for 2 h at 37° C. The reaction was terminated by the addition of ethanol, and the incorporated ^14C-Fuc determined by liquid scintillation counting after separation in Sep-Pak C18 cartridges (Waters-Millipore, Millford, Mass.). In all cases the parallel reactions were performed in the absence of added acceptor molecules, to allow for the calculation of specific incorporation.
(§2) Cell lysates prepared from COS cells transfected in the manner described in Example 1 with pFUT2 (pig Se), pFUT1 (pig H transferase), or with vector alone were assayed for α(1,2)-fucosyltransferase activity, and the kinetic values were calculated. […]

[2] = Enzyme kinetics, apparent Km, lactose; type: biochemical; details: Lactose Galβ(1,4)Glc; lysates of transfected COS cells
Procedure: as §1, §2

[3] = Enzyme kinetics, apparent Km, Type IV substrate; type: biochemical; details: Type IV Galβ(1,4)Gal; lysates of transfected COS cells
Procedure: as §1, §2

[4] = Enzyme kinetics, apparent Km, Type I substrate; type: biochemical; details: Type I Galβ(1,3)GlcNAc; lysates of transfected COS cells
Procedure: as §1, §2

[5] = Enzyme kinetics, apparent Km, Type II substrate; type: biochemical; details: Type II Galβ(1,4)GlcNAc; lysates of transfected COS cells
Procedure: as §1, §2

[6] = test system: α(1,2)-fucosyltransferase; assay: α(1,2)-fucosyltransferase activity in lysates of transfected COS cells; type: biochemical, pig; details: mock-transfected baseline 1.1
Procedure: as §1
Cell lysates prepared from COS cells transfected with pFUT2 and pFUT1 were assayed for α(1,2)-fucosyltransferase activity. […] The enzyme activity measured in these lysates reflects the expression of H substance on the cell surface as shown in Example 2.

[7] = Type II Galβ(1,4)GlcNAc; literature refs 34, 37; read-out: Km reported; cited from earlier work
[8] = Type III Galβ(1,3)GalNAc; literature ref 34; read-out: Km reported; cited from earlier work
[9] = Type I Galβ(1,3)GlcNAc; literature refs 34, 35; read-out: Km reported; cited from earlier work

B1: pFUT1: pig H type α(1,2)-fucosyltransferase expressed in COS cells; label also used for the plasmid encoding it (protein, UniProt Q29043 1-365, looked up)
Galactoside …: MWVPSRRHLCLTFLLVCVLAAIFFLNVYQDLFYSGLDLLALCPDHNVVSSPVAIFCLAGTPVHPNASDSCPKHPASLSGTWTIYPDGRFGNQMGQYATLLALAQLNGRQAFIQPAMHAVLAPVFRITLPVLAPEVDRHAPWRELELHDWMSEDYAHLKEPWLKLTGFPCSWTFFHHLREQIRSEFTLHDHLRQEAQGVLSQFRLPRTGDRPSTFVGVHVRRGDYLRVMPKRWKGVVGDGAYLQQAMDWFRARYEAPVFVVTSNGMEWCRKNIDTSRGDVIFAGDGREAAPARDFALLVQCNHTIMTIGTFGFWAAYLAGGDTIYLANFTLPTSSFLKIFKPEAAFLPEWVGINADLSPLQMLAGP
Q: Which results are given for B1?
A: Km [1]: 14 mM; Km [2]: 1.9 mM; Km [3]: 4.2 mM; Km [4]: 6 mM; Km [5]: 3.7 mM; α(1,2)-fucosyltransferase activity [6]: 140.0 nmol/h/mg

B2: rabbit FUT1: rabbit α(1,2)-fucosyltransferase FUT1, literature homologue (protein, UniProt Q10979 1-373, looked up)
Galactoside …: MWPPSRRQLCLAFLLVCALSAFSFLLHLHQDLFRNGLALSLPCLERQPVPAPVAIVCLPVTSPASNASSCAGRPAAPSGIWTIHPDGRFGNQMGQYATLLALAQLNGRRAFILPAMHAALAPVFRITLPVLAPEVNRRTSWKQLLLHDWMSEEYSRLEDPFLKFTGFPCSWTFFHHVREQIRREFTLHDHLREEAQRLLGKLRLGRTGARPRTFVGVHVRRGDYLQVMPQRWKGVVGDRAYLQQAMDWFRARHEAPIFVVTSNGMKWCWENIDASRGDVVFAGNGLESSPAKDFALLTQCNHTVMTIGTFGFWAAYLAGGDTVYLANFTLPDSEFLKIFKPEAAFLPEWVGINADLSPVRTLSGSWRPWRFLG
Q: Which Km [7] does the source give for B2 here?
A: 4.2 mM

Q: And the Km [8]?
A: 5.8 mM

Q: And the Km [9]?
A: 3.1 mM

B3: rabbit FUT2: rabbit α(1,2)-fucosyltransferase FUT2, literature homologue (protein, UniProt Q10983 1-354, looked up)
Galactoside …: MRFAPDYVLCPPTATRRLRATHPSVSTIYFLFTIFVVSTVFHCHQRLALVPAPWAYSARVVVVPGHLPREGMWTINAMGRLGNQMGEYATLYALAKENGRPAYIPAQMHSTLAPIFRISLPVLHSSTASRVPWQNYHLNDWMEERYRHIPVPYVRLTGYPCSWTFYHHLRHEILREFTLHDHVREEAQAFLRGLRVNGSRPSTFVGVHVRRGDYVRVMPQVWKGVVADRGYLEQALDWFRAPTAPPVFVVTSNGMAWCRENIDASRGDVVFAGNGLEGSPAKDFALLTQCNHTVMTIGTFGFWAAYLTGGDTVYLANYTAPDSPFHLVFKPEAAFLPEWVGITANMGRALWSGL
Q: With B3 as the molecule, how does the Km [7] read?
A: 6.7 mM

Q: What about the Km [8] of the same molecule?
A: 1 mM

Q: What about the Km [9] of the same molecule?
A: 1.5 mM

B4: pFUT2: pig Secretor type α(1,2)-fucosyltransferase expressed in COS cells; label also used for the plasmid encoding it (protein, UniProt Q10982 1-340, looked up)
Galactoside …: MLSMQASFFFPTGPFILFVFTASTIFHLQQRMVKIQPTWELQMVTQVTTESPSSPQLKGMWTINAIGRLGNQMGEYATLYALARMNGRPAFIPPEMHSTLAPIFRITLPVLHASTARRIPWQNYHLNDWMEERYRHIPGEYVRLTGYPCSWTFYHHLRTEILREFTLHNHVREEAQDFLRGLRVNGSRPSTYVGVHVRRGDYVHVMPNVWKGVVADRRYLEQALDWFRARYRSPVFVVSSNGMAWCRENINASRGDVVFAGNGIEGSPAKDFALLTQCNHTVMTIGTFGIWAAYLAGGETIYLANYTLPDSPFLKLFKPEAAFLPEWIGIEADLSPLLKH
Q: For B4, which Km [1] is on record?
A: 0.2 mM

Q: And the Km [2]?
A: 7.4 mM

Q: And the Km [3]?
A: 1.5 mM

Q: What about the Km [4] of the same molecule?
A: 1.3 mM

Q: And the Km [5]?
A: 4.4 mM

Q: What about the “α(1,2)-fucosyltransferase activity” value [6] of the same molecule?
A: 151.1 nmol/h/mg

B5: human FUT1: human α(1,2)-fucosyltransferase FUT1 (H transferase), literature homologue (protein, UniProt P19526 1-365, looked up)
Galactoside …: MWLRSHRQLCLAFLLVCVLSVIFFLHIHQDSFPHGLGLSILCPDRRLVTPPVAIFCLPGTAMGPNASSSCPQHPASLSGTWTVYPNGRFGNQMGQYATLLALAQLNGRRAFILPAMHAALAPVFRITLPVLAPEVDSRTPWRELQLHDWMSEEYADLRDPFLKLSGFPCSWTFFHHLREQIRREFTLHDHLREEAQSVLGQLRLGRTGDRPRTFVGVHVRRGDYLQVMPQRWKGVVGDSAYLRQAMDWFRARHEAPVFVVTSNGMEWCKENIDTSQGDVTFAGDGQEATPWKDFALLTQCNHTIMTIGTFGFWAAYLAGGDTVYLANFTLPDSEFLKIFKPEAAFLPEWVGINADLSPLWTLAKP
Q: With B5 as the molecule, how does the Km [7] read?
A: 1.9 mM

Q: And the Km [9]?
A: 2 mM

B6: human FUT2: human α(1,2)-fucosyltransferase FUT2 (secretor), literature homologue (protein, UniProt Q10981 1-343, looked up)
Galactoside …: MLVVQMPFSFPMAHFILFVFTVSTIFHVQQRLAKIQAMWELPVQIPVLASTSKALGPSQLRGMWTINAIGRLGNQMGEYATLYALAKMNGRPAFIPAQMHSTLAPIFRITLPVLHSATASRIPWQNYHLNDWMEEEYRHIPGEYVRFTGYPCSWTFYHHLRQEILQEFTLHDHVREEAQKFLRGLQVNGSRPGTFVGVHVRRGDYVHVMPKVWKGVVADRRYLQQALDWFRARYSSLIFVVTSNGMAWCRENIDTSHGDVVFAGDGIEGSPAKDFALLTQCNHTIMTIGTFGIWAAYLTGGDTIYLANYTLPDSPFLKIFKPEAAFLPEWTGIAADLSPLLKH
Q: Which Km [7] does the source give for B6 here?
A: 5.7 mM

Q: And the Km [9]?
A: 1 mM
